# Columns and labels:
# [1] = tested on: NC(=O)c1ncn([C@@H]2O[C@H](COP(=O)(O)O)[C@@H](O)[C@H]2O)c1NC=O; experiment: purified protein; type: biochemical, Archaeoglobus fulgidus; conditions: 0.050 M Tris, pH 7.3, 50°C, MBP fusion
# [2] = tested on: NC(=O)c1ncn([C@@H]2O[C@H](COP(=O)(O)O)[C@@H](O)[C@H]2O)c1NC=O; experiment: purified protein; type: biochemical, Thermococcus kodakarensis; conditions: 0.050 M Tris, pH 7.3, 50°C, MBP fusion
Substance,Km [1] [µM],kcat [1] [s⁻¹],Km [2] [µM],kcat [2] [s⁻¹]
AF1811 (Archaeoglobus fulgidus PurH2) (Archaeoglobus fulgidus DSM 4304),7.8 ± 1.8,1.32 ± 0.14,,
TK0430 (Thermococcus kodakarensis PurO) (Thermococcus kodakarensis KOD1),,,1.56 ± 0.39,0.48 ± 0.04

# From paper PMC6797443, “Experimental characterization of two archaeal inosine 5'-monophosphate cyclohydrolases” (PLoS ONE, 2019)
